This note sets out measurements from patent US8383581B2, “Short-chain peptides as parathyroid hormone (PTH) receptor agonist” (Cadila Healthcare Limited, priority 2009, dated 2013).

*1 amine or outer side, *2 acyl side, *3 side chain or, on linkers, in order; H or OH if unused. Where no end group is shown, it is not given here. [ ]: non-standard residue; d: D form. αMe‑APPA = 2-amino-2-methyl-5-phenylpentanoic acid, C[C@@](CCCc1ccccc1)(N[*:1])C(=O)[*:2]; Arg(NO2) = N=C(NCCC[C@H](N)C(=O)O)N[N+](=O)[O-]; αMePhe(2,6-F2) = C[C@](N)(Cc1c(F)cccc1F)C(=O)O; αMePhe(2-F) = C[C@](N)(Cc1ccccc1F)C(=O)O; αMeW = C[C@](N)(Cc1c[nH]c2ccccc12)C(=O)O; αMeNle = CCCC[C@](C)(N[*:1])C(=O)[*:2]; hhPhe = N[C@@H](CCCc1ccccc1)C(=O)O; hArg = N=C(N)NCCCC[C@H](N)C(=O)O; αMeF = C[C@](N)(Cc1ccccc1)C(=O)O; Cit = NC(=O)NCCC[C@H](N)C(=O)O; αMeV = CC(C)[C@](C)(N)C(=O)O; αMeM = CSCC[C@](C)(N)C(=O)O; αMeP = C[C@@]1(C(=O)O)CCCN1; Nle = CCCC[C@H](N)C(=O)O; Ac5c = NC1(C(=O)O)CCCC1; Ac3c = NC1(C(=O)O)CC1; Aib = CC(C)(N)C(=O)O

The target of this test is T1, rat PTH-1R (rat PTHR endogenously expressed on UMR-106 rat osteosarcoma cells) (rat, UniProt P25961 27-591).
T1 sequence (looked up): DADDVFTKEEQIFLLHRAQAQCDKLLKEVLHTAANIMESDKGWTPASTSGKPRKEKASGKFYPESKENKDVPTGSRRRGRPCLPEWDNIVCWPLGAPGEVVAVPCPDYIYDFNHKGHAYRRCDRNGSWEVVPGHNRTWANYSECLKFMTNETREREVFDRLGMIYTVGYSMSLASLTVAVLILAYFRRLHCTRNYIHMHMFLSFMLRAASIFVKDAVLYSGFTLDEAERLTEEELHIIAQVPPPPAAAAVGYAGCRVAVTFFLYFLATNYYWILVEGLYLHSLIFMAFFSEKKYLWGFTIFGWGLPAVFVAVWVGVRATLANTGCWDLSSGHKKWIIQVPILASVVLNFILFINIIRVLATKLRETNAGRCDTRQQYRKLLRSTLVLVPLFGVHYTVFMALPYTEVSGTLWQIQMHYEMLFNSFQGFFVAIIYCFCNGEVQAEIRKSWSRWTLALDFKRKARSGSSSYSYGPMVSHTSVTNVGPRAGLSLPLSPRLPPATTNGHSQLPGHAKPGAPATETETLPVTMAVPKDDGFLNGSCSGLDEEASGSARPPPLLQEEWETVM
Nature of the test: cell-based or functional assay.

For [Aib]V[Ac5c]EIQ[αMePhe(2,6-F2)][Nle]HQ[hArg][αMeP]K[αMePhe(2-F)] [Seq. ID. 78], the “cAMP released with respect to control, 1 nM peptide, UMR-106 cells” value (from here on “cAMP released … 1 nM peptide, UMR-106 cells”) is 23 percent of control; the “cAMP released with respect to control, 10 nM peptide, UMR-106 cells” value (from here on “cAMP released … 10 nM peptide, UMR-106 cells”) was 73 percent of control; the “cAMP released with respect to control, 100 nM peptide, UMR-106 cells” value (shortened to “cAMP released … 100 nM peptide, UMR-106 cells”) was 93 percent of control.
Take [αMeV][Ac5c]V[Aib]EIQL[αMeM]HQ[hArg]A[hArg][αMeW][αMe‑APPA] [Seq. ID. 954]: the “cAMP released … 1 nM peptide, UMR-106 cells” value was 36 percent of control; the “cAMP released … 10 nM peptide, UMR-106 cells” value was 88 percent of control; the “cAMP released … 100 nM peptide, UMR-106 cells” value is 116 percent of control.
For [Aib]V[Aib]EIQ[αMePhe(2-F)][Nle]HQ[hArg][αMeP]K[αMePhe(2,6-F2)] [Seq. ID. 91], the “cAMP released … 1 nM peptide, UMR-106 cells” value is 42 percent of control; the “cAMP released … 10 nM peptide, UMR-106 cells” value is 101 percent of control; the “cAMP released … 100 nM peptide, UMR-106 cells” value was 110 percent of control.
Taken in the same sequence, the figures for [Aib]V[Aib]EIQ[αMePhe(2,6-F2)][Nle]HQ[hArg][Aib][αMePhe(2,6-F2)][αMePhe(2-F)] [Seq. ID. 212] were 34 percent of control, 88 percent of control and 116 percent of control.
Consider [Ac5c]V[Ac5c]EIQ[αMePhe(2,6-F2)][Nle]HQ[hArg][Aib][Aib][αMePhe(2,6-F2)] [Seq. ID. 198], for which the “cAMP released … 1 nM peptide, UMR-106 cells” value was 32 percent of control; the “cAMP released … 10 nM peptide, UMR-106 cells” value is 71 percent of control; the “cAMP released … 100 nM peptide, UMR-106 cells” value was 99 percent of control.
As to [Aib]V[Aib]EIQLMHQ[hArg][Aib]K[αMeF] [Seq. ID. 9], the “cAMP released … 1 nM peptide, UMR-106 cells” value was 16 percent of control; the “cAMP released … 10 nM peptide, UMR-106 cells” value was 41 percent of control; the “cAMP released … 100 nM peptide, UMR-106 cells” value was 52 percent of control.
Regarding [Ac5c]V[Ac5c]EIQ[αMePhe(2-F)][Nle]HQ[hArg][αMeP]K[αMePhe(2-F)] [Seq. ID. 65], the “cAMP released … 1 nM peptide, UMR-106 cells” value was 34 percent of control; the “cAMP released … 10 nM peptide, UMR-106 cells” value is 82 percent of control; the “cAMP released … 100 nM peptide, UMR-106 cells” value was 104 percent of control.
With [Ac5c]V[Aib]EIQ[αMePhe(2,6-F2)][Nle]HQ[hArg]AK[αMeF] [Seq. ID. 49], the “cAMP released … 1 nM peptide, UMR-106 cells” value was 16 percent of control; the “cAMP released … 10 nM peptide, UMR-106 cells” value was 56 percent of control; the “cAMP released … 100 nM peptide, UMR-106 cells” value was 73 percent of control.
[Aib]V[Ac5c]EIQ[αMePhe(2,6-F2)][Nle]HQ[hArg][Aib][Arg(NO2)][αMePhe(2-F)] [Seq. ID. 256]: the “cAMP released … 1 nM peptide, UMR-106 cells” value is 28 percent of control; the “cAMP released … 10 nM peptide, UMR-106 cells” value was 71 percent of control; the “cAMP released … 100 nM peptide, UMR-106 cells” value is 87 percent of control.
Turning to V[Ac3c]V[Aib]EIQL[αMeNle]HQ[hArg]A[hArg][αMePhe(2-F)][αMe‑APPA] [Seq. ID. 935], the “cAMP released … 1 nM peptide, UMR-106 cells” value is 38 percent of control; the “cAMP released … 10 nM peptide, UMR-106 cells” value was 102 percent of control; the “cAMP released … 100 nM peptide, UMR-106 cells” value is 117 percent of control.
As to [Aib]V[Ac5c]EIQ[αMePhe(2,6-F2)][Nle]HQ[hArg][Aib][Cit][αMePhe(2,6-F2)] [Seq. ID. 156], the “cAMP released … 1 nM peptide, UMR-106 cells” value is 31 percent of control; the “cAMP released … 10 nM peptide, UMR-106 cells” value is 89 percent of control; the “cAMP released … 100 nM peptide, UMR-106 cells” value is 106 percent of control.
Regarding [Ac3c]V[Aib]EIQ[αMePhe(2,6-F2)][Nle]HQ[hArg][αMeP]K[αMePhe(2,6-F2)] [Seq. ID. 110], the “cAMP released … 1 nM peptide, UMR-106 cells” value is 12 percent of control; the “cAMP released … 10 nM peptide, UMR-106 cells” value was 39 percent of control; the “cAMP released … 100 nM peptide, UMR-106 cells” value was 72 percent of control.
For [Ac3c]V[Aib]EIQ[αMePhe(2,6-F2)][Nle]HQ[hArg][Aib][Aib][αMePhe(2-F)] [Seq. ID. 174], the “cAMP released … 1 nM peptide, UMR-106 cells” value was 31 percent of control; the “cAMP released … 10 nM peptide, UMR-106 cells” value is 72 percent of control; the “cAMP released … 100 nM peptide, UMR-106 cells” value is 100 percent of control.
As to [Ac3c]V[Aib]EIQ[αMePhe(2-F)][Nle]HQ[hArg][αMeP]K[αMePhe(2-F)] [Seq. ID. 59], the “cAMP released … 1 nM peptide, UMR-106 cells” value is 19 percent of control; the “cAMP released … 10 nM peptide, UMR-106 cells” value was 66 percent of control; the “cAMP released … 100 nM peptide, UMR-106 cells” value was 84 percent of control.
For [Aib]V[Aib]EIQ[αMePhe(2,6-F2)][Nle]HQ[hArg][Aib][Cit][αMePhe(2-F)] [Seq. ID. 132] the same measures were 29 percent of control, 82 percent of control and 101 percent of control.
Taken in the same sequence, the figures for [Aib]V[Aib]EIQL[αMeM]HQ[hArg]A[hArg][αMeW][hhPhe] [Seq. ID. 942] were 29 percent of control, 52 percent of control and 69 percent of control.
On to [Ac5c]V[Ac5c]EIQ[αMePhe(2,6-F2)][Nle]HQ[hArg][Aib][αMePhe(2,6-F2)][αMePhe(2,6-F2)] [Seq. ID. 238], for which the “cAMP released … 1 nM peptide, UMR-106 cells” value was 38 percent of control; the “cAMP released … 10 nM peptide, UMR-106 cells” value was 91 percent of control; the “cAMP released … 100 nM peptide, UMR-106 cells” value is 120 percent of control.
On to V[Ac3c]V[Aib]EIQL[αMeM]HQ[hArg]A[hArg][αMeW][αMe‑APPA] [Seq. ID. 950], for which the “cAMP released … 1 nM peptide, UMR-106 cells” value is 26 percent of control; the “cAMP released … 10 nM peptide, UMR-106 cells” value is 67 percent of control; the “cAMP released … 100 nM peptide, UMR-106 cells” value is 81 percent of control.
For the molecule [Aib]V[Aib]EIQ[αMePhe(2,6-F2)][Nle]HQ[hArg]A[Arg(NO2)][αMePhe(2,6-F2)] [Seq. ID. 271], the “cAMP released … 1 nM peptide, UMR-106 cells” value was 46 percent of control; the “cAMP released … 10 nM peptide, UMR-106 cells” value was 108 percent of control; the “cAMP released … 100 nM peptide, UMR-106 cells” value is 116 percent of control.
